Laboratory results taken from article PMC2791412 (Biochemistry, 2009).
Read-outs that look alike come from different tables or passages of the source. No end group written: not given here.

Experiments:
[1] = target: T1, calmodulin (native vertebrate CaM) (vertebrate, UniProt P0DP23 1-149); assay: other fluorescence titration
[2] = target: T1, calmodulin (native vertebrate CaM); assay: other fluorescence titration; remark: listed apart in the source

Kd [1] [µM]	Kd [2] [µM]	Binder
2.4	2.9	AHKAATKIQASFRGHITRKKLKGEKKDDVQ (domain or fragment, also: fluorescent reporter) [BIQ, fluorescent reporter containing an IQ domain sequence derived from neuromodulin]
1130	11	TERAAVAIQSQFRKFQKKKAGSQS (domain or fragment, also: fluorescent reporter) [BIQPEP, fluorescent reporter containing an IQ domain sequence derived from PEP19]
